Our source for the koff, Kd and kon values is US20200199533A1 (KING ABDULLAH UNIVERSITY OF SCIENCE AND TECHNOLOGY, published 2020).

Experiment [1] concerns the target T1, CD34, native glycoprotein from human HSPCs (KG1a, CD34^pos-BM, CD34^pos-UCB, CD34^pos-AML) (human, UniProt P28906 32-385, native glycosylation (about 120-130 kDa form); sialylated O-glycans and tyrosine sulfation are shown to matter for selectin binding).
T1 construct: mature; also called E-selL CD34
T1 sequence (looked up): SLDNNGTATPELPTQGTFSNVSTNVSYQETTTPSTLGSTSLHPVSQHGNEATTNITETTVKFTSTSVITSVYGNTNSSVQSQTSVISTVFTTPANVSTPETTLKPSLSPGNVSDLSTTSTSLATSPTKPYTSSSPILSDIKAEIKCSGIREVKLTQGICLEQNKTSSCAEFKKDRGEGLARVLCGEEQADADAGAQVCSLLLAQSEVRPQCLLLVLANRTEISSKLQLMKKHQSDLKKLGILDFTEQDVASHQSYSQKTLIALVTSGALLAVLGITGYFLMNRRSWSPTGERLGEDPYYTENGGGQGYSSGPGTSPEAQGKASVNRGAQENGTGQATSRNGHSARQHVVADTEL
The experiment can be described thus: SPR; CD34 captured from CD34^pos-BM lysate on 563 mAb; apparent rate constant after the last E-Ig injection. In general terms: In SPR one partner is held on a chip, and binding of the other changes the refractive index at the surface.

Experiment [2] has as its target T2, PSGL-1, native glycoprotein from human HSPCs (KG1a, CD34^pos-BM) (human, UniProt Q14242 42-412, native glycosylation and tyrosine sulfation).
T2 construct: mature; also called P-selectin glycoprotein ligand-1
T2 sequence (looked up): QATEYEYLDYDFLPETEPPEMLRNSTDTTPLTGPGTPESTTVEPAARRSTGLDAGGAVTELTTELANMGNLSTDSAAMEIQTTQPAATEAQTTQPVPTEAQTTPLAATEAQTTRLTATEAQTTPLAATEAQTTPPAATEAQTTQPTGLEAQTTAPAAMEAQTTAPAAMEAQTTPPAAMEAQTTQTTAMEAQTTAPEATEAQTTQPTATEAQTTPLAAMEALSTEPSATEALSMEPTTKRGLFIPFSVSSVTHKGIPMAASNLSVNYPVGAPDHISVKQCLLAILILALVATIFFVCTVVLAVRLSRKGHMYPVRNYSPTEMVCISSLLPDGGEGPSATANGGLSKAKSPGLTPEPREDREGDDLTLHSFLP
The experiment is described as follows: SPR; PSGL-1 captured from KG1a lysate on KPL-1-mAb, E-Ig injected (3.9-2000 nM), 150 mM NaCl; steady-state model; 1st experiment.

Experiment [3] concerns the target T2, PSGL-1, native glycoprotein from human …. The experiment can be described thus: SPR; PSGL-1 captured from KG1a lysate on KPL-1-mAb, E-Ig injected (3.9-2000 nM), 150 mM NaCl; steady-state model; 3rd experiment.
The target is the same in experiment [4]. The experiment is described as follows: SPR; PSGL-1 captured from KG1a lysate on KPL-1-mAb, E-Ig injected (3.9-2000 nM), 150 mM NaCl; steady-state model; 2nd experiment.
The target of experiment [5] is CD44 (HCELL), native glycoprotein from human HSPCs (KG1a, CD34^pos fraction) (human) (UniProt P16070). The experiment can be described thus: SPR; CD44 captured from KG1a lysate on Hermes-3-mAb, E-Ig injected, 150 mM NaCl; apparent rate constant; 3rd experiment.
CD44 (HCELL), native glycoprotein from human HSPCs (KG1a, CD34^pos fraction) (human), sequence (P16070 21-742): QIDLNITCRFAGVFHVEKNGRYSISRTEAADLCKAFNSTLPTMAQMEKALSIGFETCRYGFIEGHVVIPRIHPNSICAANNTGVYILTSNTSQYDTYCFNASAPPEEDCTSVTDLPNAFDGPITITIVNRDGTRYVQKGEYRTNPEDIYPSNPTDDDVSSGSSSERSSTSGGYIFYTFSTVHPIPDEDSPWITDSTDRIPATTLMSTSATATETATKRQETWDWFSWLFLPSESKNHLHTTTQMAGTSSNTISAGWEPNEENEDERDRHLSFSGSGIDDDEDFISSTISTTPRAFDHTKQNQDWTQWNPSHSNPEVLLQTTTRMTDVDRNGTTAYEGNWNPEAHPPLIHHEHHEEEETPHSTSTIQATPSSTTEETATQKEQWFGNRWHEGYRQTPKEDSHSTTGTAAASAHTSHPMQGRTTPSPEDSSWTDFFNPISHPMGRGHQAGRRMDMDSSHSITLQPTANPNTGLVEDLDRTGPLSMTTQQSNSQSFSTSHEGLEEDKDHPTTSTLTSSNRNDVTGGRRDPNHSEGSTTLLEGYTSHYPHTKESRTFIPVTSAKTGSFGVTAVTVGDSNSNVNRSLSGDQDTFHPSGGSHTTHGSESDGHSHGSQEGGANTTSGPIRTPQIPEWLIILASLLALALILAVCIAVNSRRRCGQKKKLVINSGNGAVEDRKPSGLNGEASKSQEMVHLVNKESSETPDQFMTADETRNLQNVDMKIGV
For experiment [6], the target named is T1, CD34, native glycoprotein from human …. The experiment is described as follows: SPR; CD34 captured from CD34^pos-BM lysate on 563 mAb; apparent rate constant, estimate.
In experiment [7] the target is CD44 (HCELL), native glycoprotein from human HSPCs (KG1a, CD34^pos fraction) (human) (UniProt P16070). The experiment is described as follows: SPR; CD44 captured from KG1a lysate on Hermes-3-mAb, E-Ig injected (3.9-2000 nM), 150 mM NaCl; steady-state model; 1st experiment.
Experiment [8] has the same target. The experiment can be described thus: SPR; CD44 captured from KG1a lysate on Hermes-3-mAb, E-Ig injected, 150 mM NaCl; apparent rate constant; mean ± SEM.
Experiment [9] has as its target T1, CD34, native glycoprotein from human …. The experiment is described as follows: SPR; CD34 captured from KG1a lysate on 563-mAb, E-Ig injected, 150 mM NaCl; apparent rate constant; 3rd experiment.
For experiment [10] the target is unchanged. The experiment is described as follows: SPR; CD34 captured from KG1a lysate on 563-mAb, E-Ig injected (3.9-2000 nM), 150 mM NaCl; steady-state model; 1st experiment.
Experiment [11] concerns the target CD44 (HCELL), native glycoprotein from human HSPCs (KG1a, CD34^pos fraction) (human) (UniProt P16070). The experiment can be described thus: SPR; CD44 captured from KG1a lysate on Hermes-3-mAb, E-Ig injected, 150 mM NaCl; apparent rate constant; 2nd experiment.
The target of experiment [12] is T1, CD34, native glycoprotein from human …. The experiment can be described thus: SPR; CD34 captured from KG1a lysate on 563-mAb, E-Ig injected, 150 mM NaCl; apparent rate constant; 1st experiment.

B1: recombinant E-selectin human immunoglobulin chimeric protein (Fc fusion)
chain: WSYNTSTEAMTYDEASAYCQQRYTHLVAIQNKEEIEYLNSILSYSPSYYWIGIRKVNNVWVWVGTQKPLTEEAKNWAPGEPNNRQKDEDCVEIYIKREKDVGMWNDERCSKKKLALCYTAACTNTSCSGHGECVETINNYTCKCDPGFSGLKCEQIVNCTALESPEHGSLVCSHPLGNFSYNSSCSISCDRGYLPSSMETMQCMSSGEWSAPIPACNVVECDAVTNPANGFVECFQNPGSFPWNTTCTFDCEEGFELMGAQSLQCTSSGNWDNEKPTCKAVTCRAVRQPQNGSVRCSHSPAGEFTFKSSCNFTCEEGFMLQGPAQVECTTQGQWTQQIPVCEAFQCTALSNPERGYMNCLPSASGSFRYGSSCEFSCEQGFVLKGSKRLQCGPTGEWDNEKPTCEAVRCDAVHQPPKGLVRCAHSPIGEFTYKSSCAFSCEEGFELHGSTQLECTSQGQWTEEVPSCQVVKCSSLAVPGKINMSCSGEPVFGTVCKFACPEGWTLNGSAARTCGATGHWSGLLPTCEAPTESNIP
As usually defined, the koff is the rate constant with which the complex falls apart. As a reminder, the Kd is the equilibrium constant for the complex coming apart. Lower therefore signals a tighter complex. Usually kon stands for a measure of how fast the partners come together. B1: the koff in [1] amounted to 0.00019 s⁻¹; in experiment [5], 0.000273 s⁻¹; in experiment [8] it was 0.00019 s⁻¹; in experiment [9], 0.000331 s⁻¹; in experiment [11], 0.0002 s⁻¹; in experiment [12], 0.00029 s⁻¹. Further, the dissociation constant Kd in [2] came out at 342 nM; in experiment [3], 229 nM; in experiment [4], 207 nM; in experiment [7], 234 nM; in experiment [10], 145 nM. Besides, the kon is 1280 M⁻¹ s⁻¹ in experiment [5]; ~728 M⁻¹ s⁻¹ in experiment [6]; 903 M⁻¹ s⁻¹ in [8]; 794 M⁻¹ s⁻¹ in experiment [11]; 2030 M⁻¹ s⁻¹ in experiment [12].
